# pKd: −log10 of the molar value.
# What was measured:
# [1] = molecular target: protein F of hRSV strain B-1 (on RSV B-1-infected Hep2 cells and on virus) (human respiratory syncytial virus, strain B-1) (UniProt P13843); experiment: cell-based or functional assay
# [2] = molecular target: hRSV FTM-NN (membrane anchorless form of the Long fusion protein, 70 kDa) (human respiratory syncytial virus, strain Long) (UniProt P12568); experiment: SPR (Biacore), FTM-NN amine-coupled on CM5 chip, 1:1 Langmuir fit
# [3] = molecular target: protein F of hRSV strain Long, on virus (inactivated hRSV Long, Hytest #8RSV79; RSV Long LM-2, ATCC VR-26) (human respiratory syncytial virus, strain Long) (UniProt P12568); experiment: cell-based or functional assay
Substance,Neutralization B-1 IC50 [1] [nM],pKd [2],koff [2] [s⁻¹],kon [2] [M⁻¹ s⁻¹],Neutralization Long IC50 [3] [nM]
"101F Fab (WO 06/050280, humanized monoclonal antibody, in-house produced)",180,–,–,–,–
"Synagis® Mab (Palivizumab, humanized monoclonal antibody)",3.9,9.19,0.00018,280000,5.96

# — US20120301469A1
